The RNAGym collection of RNA variant scans (doi:10.1093/molbev/msab373)

B1: Azoarcus group I ribozyme (parent)
chain: GUGCCUUGCGCCGGGAAACCACGCAAGGGAUGGUGUCAAAUUCGGCGAAACCUAAGCGCCCGCCCGGGCGUAUGGCAACGCCGAGCCAAGCUUCGGCGCCUGCGCCGAUGAAGGUGUAGAGACUAGACGGCACCCACCUAAGGCAAACGCUAUGGUGAAGGCAUAGUCCAGGGAGUGGCGAAAGUCACACAAACCGG

Variants of: B1
Experiment: reverse-splicing fitness (ratio to wild type); higher = more active; in vitro selection; Mg2+ level not given
Outline: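 An in vitro group I ribozyme library with randomized positions was T7-transcribed and gel-purified. In triplicate, 10 pmol RNA in EPPS pH 7.5 was reacted with 50 pmoles of a 30-nt RNA substrate for 1 h at 37 °C across several added MgCl2 levels (1–48 mM), then stopped with EDTA. Products were reverse transcribed from a substrate-complementary primer, PCR-amplified and sequenced (HiSeq 4000). Fitness is a variant's read proportion after selection over that before, normalised to wild type.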

Variant	reverse-splicing fitness
A111G A120C A145U C150G C169U	0.0352
A111G A120C A145U C150G C169U U176A	0.0072
A111G A120C A145U C150G C169U U176C	0.0159
A111G A120C A145U C150G C169U U176G	0.00422
A111G A120C A145U C150G U176A	0.0189
A111G A120C A145U C150G U176C	0.0545
A111G A120C A145U C150G U176G	0.00444
A111G A120C A145U C150U	0.579
A111G A120C A145U C150U C169A	0.013
A111G A120C A145U C150U C169A U176A	0.0122
A111G A120C A145U C150U C169A U176C	0.00821
A111G A120C A145U C150U C169A U176G	0.00393
A111G A120C A145U C150U C169G	0.0111
A111G A120C A145U C150U C169G U176A	0.014
A111G A120C A145U C150U C169G U176C	0.0106
A111G A120C A145U C150U C169G U176G	0.00446
A111G A120C A145U C150U C169U	0.173
A111G A120C A145U C150U C169U U176A	0.0423
A111G A120C A145U C150U C169U U176C	0.051
A111G A120C A145U C150U C169U U176G	0.00606
A111G A120C A145U C150U U176A	0.365
A111G A120C A145U C150U U176C	0.357
A111G A120C A145U C150U U176G	0.0965
A111G A120C A145U C169A	0.0133

Variant	reverse-splicing fitness
A111G A120C A145U C169A U176A	0.00811
A111G A120C A145U C169A U176C	0.0103
A111G A120C A145U C169A U176G	0.00333
A111G A120C A145U C169G	0.0128
A111G A120C A145U C169G U176A	0.00894
A111G A120C A145U C169G U176C	0.00882
A111G A120C A145U C169G U176G	0.0045
A111G A120C A145U C169U	0.262
A111G A120C A145U C169U U176A	0.0589
A111G A120C A145U C169U U176C	0.0719
A111G A120C A145U C169U U176G	0.00772
A111G A120C A145U U176A	0.482
A111G A120C A145U U176C	0.45
A111G A120C A145U U176G	0.172
A111G A120C C150A	0.124
A111G A120C C150A C169A	0.00922
A111G A120C C150A C169A U176A	0.0158
A111G A120C C150A C169A U176C	0.0167
A111G A120C C150A C169A U176G	0.00468
A111G A120C C150A C169G	0.00862
A111G A120C C150A C169G U176A	0.0214
A111G A120C C150A C169G U176C	0.0196
A111G A120C C150A C169G U176G	0.00513
A111G A120C C150A C169U	0.0403

Variant	reverse-splicing fitness
A111G A120C C150A C169U U176A	0.0231
A111G A120C C150A C169U U176C	0.022
A111G A120C C150A C169U U176G	0.00616
A111G A120C C150A U176A	0.0735
A111G A120C C150A U176C	0.0799
A111G A120C C150A U176G	0.0222
A111G A120C C150G	0.0783
A111G A120C C150G C169A	0.00889
A111G A120C C150G C169A U176A	0.00551
A111G A120C C150G C169A U176C	0.00784
A111G A120C C150G C169A U176G	0.00466
A111G A120C C150G C169G	0.0068
A111G A120C C150G C169G U176A	0.00631
A111G A120C C150G C169G U176C	0.00358
A111G A120C C150G C169G U176G	0.00385
A111G A120C C150G C169U	0.0262
A111G A120C C150G C169U U176A	0.00767
A111G A120C C150G C169U U176C	0.0152
A111G A120C C150G C169U U176G	0.0044
A111G A120C C150G U176A	0.0119
A111G A120C C150G U176C	0.036
A111G A120C C150G U176G	0.00371
A111G A120C C150U	0.528
A111G A120C C150U C169A	0.012

Variant	reverse-splicing fitness
A111G A120C C150U C169A U176A	0.0182
A111G A120C C150U C169A U176C	0.012
A111G A120C C150U C169A U176G	0.00384
A111G A120C C150U C169G	0.0131
A111G A120C C150U C169G U176A	0.0207
A111G A120C C150U C169G U176C	0.0169
A111G A120C C150U C169G U176G	0.00459
A111G A120C C150U C169U	0.161
A111G A120C C150U C169U U176A	0.0417
A111G A120C C150U C169U U176C	0.0445
A111G A120C C150U C169U U176G	0.00603
A111G A120C C150U U176A	0.314
A111G A120C C150U U176C	0.337
A111G A120C C150U U176G	0.0682
A111G A120C C169A	0.0146
A111G A120C C169A U176A	0.0147
A111G A120C C169A U176C	0.0167
A111G A120C C169A U176G	0.00421
A111G A120C C169G	0.0129
A111G A120C C169G U176A	0.0158
A111G A120C C169G U176C	0.0183
A111G A120C C169G U176G	0.00351
A111G A120C C169U	0.271
A111G A120C C169U U176A	0.0684

Variant	reverse-splicing fitness
A111G A120C C169U U176C	0.0857
A111G A120C C169U U176G	0.00675
A111G A120C U176A	0.47
A111G A120C U176C	0.522
A111G A120C U176G	0.125
A111G A120G	0.3
A111G A120G A145C	0.266
A111G A120G A145C C150A	0.0175
A111G A120G A145C C150A C169A	0.0124
A111G A120G A145C C150A C169A U176A	0.0135
A111G A120G A145C C150A C169A U176C	0.00695
A111G A120G A145C C150A C169A U176G	0.00399
A111G A120G A145C C150A C169G	0.0196
A111G A120G A145C C150A C169G U176A	0.0264
A111G A120G A145C C150A C169G U176C	0.0168
A111G A120G A145C C150A C169G U176G	0.00542
A111G A120G A145C C150A C169U	0.0192
A111G A120G A145C C150A C169U U176A	0.0233
A111G A120G A145C C150A C169U U176C	0.0129
A111G A120G A145C C150A C169U U176G	0.00508
A111G A120G A145C C150A U176A	0.0131
A111G A120G A145C C150A U176C	0.0131
A111G A120G A145C C150A U176G	0.00495
A111G A120G A145C C150G	0.036

Variant	reverse-splicing fitness
A111G A120G A145C C150G C169A	0.0226
A111G A120G A145C C150G C169A U176A	0.00837
A111G A120G A145C C150G C169A U176C	0.00969
A111G A120G A145C C150G C169A U176G	0.00453
A111G A120G A145C C150G C169G	0.0368
A111G A120G A145C C150G C169G U176A	0.0101
A111G A120G A145C C150G C169G U176C	0.00653
A111G A120G A145C C150G C169G U176G	0.00389
A111G A120G A145C C150G C169U	0.0356
A111G A120G A145C C150G C169U U176A	0.0176
A111G A120G A145C C150G C169U U176C	0.0162
A111G A120G A145C C150G C169U U176G	0.00502
A111G A120G A145C C150G U176A	0.014
A111G A120G A145C C150G U176C	0.0228
A111G A120G A145C C150G U176G	0.00289
A111G A120G A145C C150U	0.0745
A111G A120G A145C C150U C169A	0.0431
A111G A120G A145C C150U C169A U176A	0.0171
A111G A120G A145C C150U C169A U176C	0.0168
A111G A120G A145C C150U C169A U176G	0.00411
A111G A120G A145C C150U C169G	0.088
A111G A120G A145C C150U C169G U176A	0.0412
A111G A120G A145C C150U C169G U176C	0.036
A111G A120G A145C C150U C169G U176G	0.00498

Variant	reverse-splicing fitness
A111G A120G A145C C150U C169U	0.0714
A111G A120G A145C C150U C169U U176A	0.0353
A111G A120G A145C C150U C169U U176C	0.0306
A111G A120G A145C C150U C169U U176G	0.00645
A111G A120G A145C C150U U176A	0.0317
A111G A120G A145C C150U U176C	0.038
A111G A120G A145C C150U U176G	0.00705
A111G A120G A145C C169A	0.158
A111G A120G A145C C169A U176A	0.0345
A111G A120G A145C C169A U176C	0.0567
A111G A120G A145C C169A U176G	0.00382
A111G A120G A145C C169G	0.3
A111G A120G A145C C169G U176A	0.079
A111G A120G A145C C169G U176C	0.0984
A111G A120G A145C C169G U176G	0.00658
A111G A120G A145C C169U	0.219
A111G A120G A145C C169U U176A	0.0733
A111G A120G A145C C169U U176C	0.0829
A111G A120G A145C C169U U176G	0.00876
A111G A120G A145C U176A	0.0723
A111G A120G A145C U176C	0.104
A111G A120G A145C U176G	0.00892
A111G A120G A145G	0.285
